Assay results published in publication PMC9860306.

Legend:
[1] = target: rituximab, galactosylated afucosylated (G2) glycoform (human); experiment: SPR; KD2 (second site)
[2] = target: rituximab, galactosylated fucosylated (G2F) glycoform (human); experiment: SPR; KD2 (second site)
[3] = target: rituximab, galactosylated afucosylated (G2) glycoform (human); experiment: SPR; KD1
[4] = target: rituximab, galactosylated fucosylated (G2F) glycoform (human); experiment: SPR; KD1

Chain of rituximab, galactosylated afucosylated (G2) glycoform (human) (main, as listed by the source, chain 1 of 2): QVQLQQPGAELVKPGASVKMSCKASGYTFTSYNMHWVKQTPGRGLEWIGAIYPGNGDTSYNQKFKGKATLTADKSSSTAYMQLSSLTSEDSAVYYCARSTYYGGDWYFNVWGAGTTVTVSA
Chain of rituximab, galactosylated afucosylated (G2) glycoform (human) (partner, as listed by the source, chain 2 of 2): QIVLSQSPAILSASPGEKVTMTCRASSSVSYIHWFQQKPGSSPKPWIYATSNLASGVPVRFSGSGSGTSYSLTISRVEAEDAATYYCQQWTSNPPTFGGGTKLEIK
Chain of rituximab, galactosylated fucosylated (G2F) glycoform (human) (main, as listed by the source, chain 1 of 2): as the sequence (main, as listed by the source, chain 1 of 2) above
Chain of rituximab, galactosylated fucosylated (G2F) glycoform (human) (partner, as listed by the source, chain 2 of 2): as the sequence (partner, as listed by the source, chain 2 of 2) above

For FcγRIIIA(V) tetramer, the Kd [1] was 0.0023 µM, the Kd [2] was 0.00229 µM and the Kd [3] was 0.0299 µM. For the same substance, the Kd [4] was 0.0552 µM.
